Laboratory results reported in PMC11711090.

How the values were obtained:
[1] = molecular target: CPEB4 extracted from the brains of 6-month-old TgCPEB4Δ4 mice (human | mouse (endogenous in brain)) (UniProt Q17RY0); test: SEC + other: SDD-AGE
[2] = molecular target: nCPEB4(NTD), N-terminal domain of neuronal CPEB4 (with microexon 4) (human) (UniProt Q17RY0); test: SEC-MALS

| Substance | aggregated CPEB4 eluting in the void volume, normalized to control mice [1] | stoichiometry N [2] |
| --- | --- | --- |
| CPEB4 extracted from the brains of 6-month-old TgCPEB4Δ4 mice (from UniProt Q17RY0 1-729; Q7TN98 1-729) (natural protein) | 10.8 |  |
| nCPEB4(NTD), N-terminal domain of neuronal CPEB4 (with microexon 4) (from UniProt Q17RY0-2 1-448) (domain or fragment) |  | 350 |
